Experimental data as given in publication PMC9701222, “Molecular basis for DNA recognition by the maternal pioneer transcription factor FoxH1”.

Legend:
[1] = target: T1, FoxH1 FH domain (species not stated) (UniProt O75593); experiment: BLI; settings: BLI: 20 mM Tris pH 7.6, 100 mM NaCl, 2 mM DTT, 0.02% Tween-20, 0.01% BSA, 25 C; EMSA: 100 mM Tris, 10% glycerol, 7.5 nM Cy5-DNA, 4 C
T1 sequence: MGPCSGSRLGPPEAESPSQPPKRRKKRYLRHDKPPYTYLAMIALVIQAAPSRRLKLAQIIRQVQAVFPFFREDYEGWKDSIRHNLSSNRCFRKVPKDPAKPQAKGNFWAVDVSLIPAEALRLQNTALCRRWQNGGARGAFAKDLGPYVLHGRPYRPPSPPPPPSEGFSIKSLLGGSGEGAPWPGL

[2] = target: T2, hFoxA2 FH (Homo sapiens) (UniProt Q9Y261); experiment: BLI; settings: BLI: 20 mM Tris pH 7.6, 100 mM NaCl, 2 mM DTT, 0.02% Tween-20, 0.01% BSA, 25 C; EMSA: 100 mM Tris, 10% glycerol, 7.5 nM Cy5-DNA, 4 C
T2 sequence: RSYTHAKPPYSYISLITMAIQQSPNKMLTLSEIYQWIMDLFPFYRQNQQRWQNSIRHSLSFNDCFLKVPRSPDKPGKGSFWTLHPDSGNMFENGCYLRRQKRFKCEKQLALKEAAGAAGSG

[3] = target: T3, dFoxH1 FH (Danio rerio, UniProt Q9I9E1 86-210); experiment: X-ray; K+; BLI: 20 mM Tris pH 7.6, 100 mM NaCl, 2 mM DTT, 0.02% Tween-20, 0.01% BSA, 25 C; EMSA: 100 mM Tris, 10% glycerol, 7.5 nM Cy5-DNA, 4 C; settings: protein: recombinant; tags: His-SUMO removed (Ulp1); blunt
T3 sequence: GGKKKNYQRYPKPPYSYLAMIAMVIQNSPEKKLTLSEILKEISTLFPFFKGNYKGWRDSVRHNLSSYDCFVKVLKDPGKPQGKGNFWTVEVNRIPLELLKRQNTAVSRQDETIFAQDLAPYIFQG

[4] = target: T4, hFoxA2 FH (Homo sapiens, UniProt Q9Y261 153-273); experiment: EMSA; BLI: 20 mM Tris pH 7.6, 100 mM NaCl, 2 mM DTT, 0.02% Tween-20, 0.01% BSA, 25 C; EMSA: 100 mM Tris, 10% glycerol, 7.5 nM Cy5-DNA, 4 C; settings: protein: recombinant; tags: His-SUMO removed (Ulp1); label: 5'-Cy5
T4 sequence: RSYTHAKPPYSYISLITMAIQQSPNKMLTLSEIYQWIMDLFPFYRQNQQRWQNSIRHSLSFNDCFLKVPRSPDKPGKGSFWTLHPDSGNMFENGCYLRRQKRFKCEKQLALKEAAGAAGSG

[5] = target: T4, hFoxA2 FH; experiment: X-ray; BLI: 20 mM Tris pH 7.6, 100 mM NaCl, 2 mM DTT, 0.02% Tween-20, 0.01% BSA, 25 C; EMSA: 100 mM Tris, 10% glycerol, 7.5 nM Cy5-DNA, 4 C; settings: protein: recombinant; tags: His-SUMO removed (Ulp1); blunt
[6] = target: T3, dFoxH1 FH; experiment: as above; settings: protein: recombinant; tags: His-SUMO removed (Ulp1); blunt
[7] = target: T4, hFoxA2 FH; experiment: BLI; BLI: 20 mM Tris pH 7.6, 100 mM NaCl, 2 mM DTT, 0.02% Tween-20, 0.01% BSA, 25 C; EMSA: 100 mM Tris, 10% glycerol, 7.5 nM Cy5-DNA, 4 C; settings: protein: recombinant; tags: His-SUMO removed (Ulp1); label: 5'-biotin (BLI)

Molecule: ACAAGGCCTGAAAAGAGATTGTGGATTGCGAATTAATGAAATTAACCTAATCTTTTCCATTCGGCAGCCGGGCCGCGGGCCGGCCGAGCTGGGCGGGCGGCCTAATTGCCTTGGTTAATCTCATTAATTCCTTTGTGCCGCCGCAGTTAACAACTCCCTCCGCCCGA (double strand) [Gsc167 linear DNA]
- Kd [1]: 13 nM

Molecule: ACAAGGCCTGAAAAGAGATTGTGGATTGCGAATTAATGAAATTAACCTAATCTTTTCCATTCGGCAGCCGGGCCGCGGGCCGGCCGAGCTGGGCGGGCGGCCTAATTGCCTTGGTTAATCTCATTAATTCCTTTGTGCCGCCGCAGTTAACAACTCCCTCCGCCCGA (double strand) [Gsc167 nucleosome]
- Kd [2]: 30 nM
- Kd [1]: 5 nM

B1: dGSC-GG-16a (dsDNA)
DNA 1: AGATTGTGGATTGAGA
DNA 2: TCTCAATCCACAATCT
- binding result [3]: binds

B2: TT forkhead DNA, 16 bp (EMSA) (dsDNA)
DNA 1: AGATTGTTTACTGAGA
DNA 2: TCTCAGTAAACAATCT
- binding result [4]: binds

B3: FKH-TTACT-GSCflank (dsDNA)
DNA 1: AGATTGTTTACTGAGA
DNA 2: TCTCAGTAAACAATCT
- binding result [5]: binds
- binding result [6]: binds

B4: dGSC-TT-16a (dsDNA)
DNA 1: AGATTGTTTATTGAGA
DNA 2: TCTCAATAAACAATCT
- binding result [5]: binds
- binding result [6]: binds

B5: Gsc167 linear DNA (dsDNA)
DNA 1: ACAAGGCCTGAAAAGAGATTGTGGATTGCGAATTAATGAAATTAACCTAATCTTTTCCATTCGGCAGCCGGGCCGCGGGCCGGCCGAGCTGGGCGGGCGGCCTAATTGCCTTGGTTAATCTCATTAATTCCTTTGTGCCGCCGCAGTTAACAACTCCCTCCGCCCGA
DNA 2: TCGGGCGGAGGGAGTTGTTAACTGCGGCGGCACAAAGGAATTAATGAGATTAACCAAGGCAATTAGGCCGCCCGCCCAGCTCGGCCGGCCCGCGGCCCGGCTGCCGAATGGAAAAGATTAGGTTAATTTCATTAATTCGCAATCCACAATCTCTTTTCAGGCCTTGT
- Kd [7]: 800 nM

B6: dGSC-GT-16a (dsDNA)
DNA 1: AGATTGTGTATTGAGA
DNA 2: TCTCAATACACAATCT
- binding result [3]: binds
